# Data: patent US20070036810A1, “Cyclic amp response element activator proteins and uses related thereto” (priority 2003, published 2007)
# Like-named read-outs stand apart in the source and are kept apart here.
# B1: CREAP1: human CRE activating protein 1, 650 amino acids, SEQ ID NO 2; expressed from pCMVSPORT-CREAP1 (protein)
# chain: MATSNNPRKFSEKIALHNQKQAEETAAFEEVMKDLSLTRAARLQLQKSQYLQLGPSRGQYYGGSLPNVNQIGSGTMDLPFQPSGFLGEALAAAPVSLTPFQSSGLDTSRTTRHHGLVDRVYRERGRLGSPHRRPLSVDKHGRQADSCPYGTMYLSPPADTSWRRTNSDSALHQSTMTPTQPESFSSGSQDVHQKRVLLLTVPGMEETTSEADKNLSKQAWDTKKTGSRPKSCEVPGINIFPSADQENTTALIPATHNTGGSLPDLTNIHFPSPLPTPLDPEEPTFPALSSSSSTGNLAANLTHLGIGGAGQGMSTPGSSPQHRPAGVSPLSLSTEARRQQASPTLSPLSPITQAVAMDALSLEQQLPYAFFTQAGSQQPPPQPQPPPPPPPASQQPPPPPPPQAPVRLPPGGPLLPSASLTRGPQPPPLAVTVPSSLPQSPPENPGQPSMGIDIASAPALQQYRTSAGSPANQSPTSPVSNQGFSPGSSPQHTSTLGSVFGDAYYEQQMAARQANALSHQLEQFNMMENAISSSSLYSPGSTLNYSQAAMMGLTGSHGSLPDSQQLGYASHSGIPNIILTVTGESPPSLSKELTSSLAGVGDVSFDSDSQFPLDELKIDPLTLDGLHMLNDPDMVLADPATEDTFRMDRL
# modifications: human
# Tests used:
# [1] = system: cAMP responsive genes in HeLa cells; settings: vs pCMV-Sport6 vector
# Description: HeLa cells are transfected with CREAP1 as described herein or expression constructs containing relA, (Ruben S M et al., Science 1991 Mar. 22;251(5000):1490-3), MAP3K11 (Hartkamp, J. et al., (1999). Cancer Res. 59, 2195-2202) or ANKRD3 (Muto, A., et al., (2002) J. Biol. Chem. 277, 31871-31876.) using Targefect F1 transfection reagent (Targeting Systems, Santee, Calif.) according to the protocol supplied with the product. Briefly, HeLa cells are used for the transfection at 70-80% of confluency in T75 tissue culture flasks (Falcon). Transfection mixes are prepared as follows: to 50 ml conical tube (Falcon) with 8 ml of Opti-MEM I 20 μg of selected plasmid DNA is added and mixed by flicking the tube. Two transfections are set up with pCMV-Sport6 empty vector. Targefect F-1 stock solution is vortexed at full speed for 20 seconds and 40 μl are added to each tube, mixed again by flicking the tube and incubated at room temperature for 30 minutes to allow formation of transfection complexes. HeLa cells are washed twice with 20 ml of Opti-MEM I medium and […] of each transfection complex are added per 1 T75 flask. After 4 hrs of incubation at 37° C. 8 ml of growth media with serum is added to each flask. The media is replaced the next day. 56 hours post-transfection the media is replaced again and to one of the flasks transfected with pCMV-Sport6 plasmid TNFα (R&D Systems) is added at 50 ng/ml and the incubation is continued at 37° C. for the next 16 hours. 72 hours post-transfection cells are collected in 10 ml of TRIzol reagent (Gibco BRL) and frozen at −80° C. Total RNA is isolated according to the protocol supplied with the TRIzol reagent. Synthesis labeling of double-stranded cDNA probes, Affymetrix Gene-Chip hybridization and data analysis are done according to conventional methods (see also Eberwine, J., et al., J. Neurosci. 21, 8310-8314 and Hakak, Y., et al., (2001) Proc. Natl. Acad. Sci. U.S.A. 98, 4746-4751).
# To determine if CREAP1 regulates expression of authentic CREB targets, cellular gene expression was measured using DNA microarrays after overexpression of CREAP1. Briefly, HeLa cells were transiently transfected with pCMV-Sport6, CREAP1 using Targefect F1 reagent (Targeting Systems). One half of pCMV-Sport6 transfected cells were left untreated and was used as a negative control. Total RNA isolation, labeled probe preparation and DNA microchip hybridization protocol were performed as described above.
# [2] = system: Interleukin-8 promoter; experiment: IL-8 promoter luciferase reporter co-transfection assay with the CREAP gene family; type: cell-based, human; settings: cotransfection, relative to empty pCMV-SPORT6 vector
# Description: The entire amino acid sequence for CREAP1 was used in a BLASTP search of a public NCBI database. Initially two public domain cDNAs (XM—117201 and FLJ00364) were identified that have significant homology to the CREAP1 coding region. The nucleotide sequence of XM—117201 was used in a BLASTN search (Altschul S. F. et al., Nucleic Acids Res. 25:3389-3402 (1997)) of a proprietary cDNA library EST database and 4 clones were identified that represent XM—117201 public sequence. All 4 clones were functionally tested upon co-transfection with the CRE-Luc and IL-8p-Luc reporters initially found to be induced by CREAP using methods similar to those disclosed above. Briefly, trypsinized HeLa cells are resuspended in complete growth media at 6×10^4 cells/ml and distributed into white 96-well plates (Costar) in the volume of 100 μl per well. Cells are left overnight in a tissue culture incubator at 37° C. and 5% CO2. pGL3B-IL-8p-Luc reporter plasmid or CRE-Luc reporter (BD Biosciences) as well as tested cDNAs are resuspended in OptiMEM I low serum media (GIBCO BRL) at 25 ng/ml. The reporter plasmids and cDNAs are then distributed into 96-well clean PCR plates (ABGene) at 4 μl/well and 3 μl/well respectively. […]
# The activity of firefly and Renilla luciferase is measured using the DualGlo Luciferase Assay System (Promega) following the protocol supplied by the manufacturer. Briefly, 115 μl of freshly reconstituted luciferase reagent is added to each well of the 96-well tissue culture plates with a Multidrop 384 and, after 15 minutes incubation, luminescence is read on a LUMINOSKAN Ascent Luminometer (Thermo Labsystems) with a 400 msec integration time. Subsequently, 115 μl of Stop-and-Glo reagent is added to each well of the 96-well tissue culture and, after 15 minutes incubation, luminescence is read on a LUMINOSKAN Ascent Luminometer with a 200 msec integration time. The activity of each tested cDNA is measured as a ratio of the corresponding firefly and Renilla luciferase activities. […]
molecule,measurement,setting,value
B1,Fold Activation,[1]; CAPL protein mRNA (38088_r_at),19
same,Fold Activation,[1]; DKFZp566K192 mRNA (32242_at),32
same,Fold Activation,[1]; Exodus-1 mRNA (40385_at),15
same,Fold Activation,[1]; IL-8 mRNA (1369_s_at),2.5
same,Fold Activation,[1]; KIAA0467 mRNA (41458_at),12
same,Fold Activation,[1]; PEPCK mRNA (33702_f_at),32
same,Fold Activation,[1]; TSHa mRNA (39352_at),57
same,Fold Activation,[1]; amphiregulin mRNA (34898_at),19
same,IL-8: level of expression of luciferase relative to empty vector,[2],175.8571
